Here are results for one substance from paper PMC9019090.

In this test the target is FBXW7 (FBXW7α) (UniProt Q969H0). Description: Co-IP and reciprocal co-IP, immunoblot. Conditions: reference: Flag-ERRα wild type; sites S19,S22,S26.

As for “ERRα (from UniProt P11474) Flag-ERRα 3SA (S19A+S22A+S26A)”, the “binding against the reference” value was “weaker”.
